Experimental data published in US20170145113A1 (Genentech, published 2017).

The binders below were run against T1, His-tagged human HtrA1 protease domain (human, UniProt Q92743 161-367) (assay: SPR (BIACORE T200), huHtrA1-PD-His captured by anti-His, Fab injected).
T1 construct: His-tagged protease domain; also called huHtrA1-PD-His; huHtrA1-PD
Procedure: To determine the binding affinity of selected Fab variants for HtrA1, SPR measurement with a BIACORE™ T200 instrument was performed. Briefly, a series S sensor chip CM5 was activated with 1-EDC and NHS reagents according to the supplier's instructions, and anti-His antibody was coupled to achieve 200-300 response units (RU), then following by blocking un-reacted groups with 1 M ethanolamine. For kinetics measurements, approximately 5 nM of huHtrA1-PD-His was first injected at 10 μl/min flow rate to capture approximately 100 RU at 2 different flow cells (FC), except for FC1 (which served as a reference). Next, 5-fold serial dilutions of Fab in HBS-P buffer (0.01M HEPES pH 7.4, 0.15M NaCl, 0.005% surfactant P20) from low (0.8 nM) to high (50 nM) were injected (flow rate: 30 μl/min). The binding responses on HtrA1 were corrected by subtracting of RU from a blank flow cell. The sensorgram was recorded and subject to reference and buffer subtraction before evaluating by BIACORE® T200 Evaluation Software (version 2.0). Association rates (kₒₙ) and dissociation rates (koff) were calculated using a simple one-to-one Langmuir binding model. The equilibrium dissociation constant (KD) was calculated as the ratio of koff/kₒₙ.

T1 sequence (Q92743 other isoform, or with tags, fused parts or gaps limits assumed): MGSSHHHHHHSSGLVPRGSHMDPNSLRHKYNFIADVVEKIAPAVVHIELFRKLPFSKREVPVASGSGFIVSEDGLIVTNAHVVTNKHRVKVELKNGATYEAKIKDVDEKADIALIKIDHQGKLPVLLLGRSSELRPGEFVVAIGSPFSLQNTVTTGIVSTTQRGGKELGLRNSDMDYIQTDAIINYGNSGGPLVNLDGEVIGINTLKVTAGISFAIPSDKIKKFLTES

Row | Binder | Kd | koff | kon
1 | h15H6.v2 variant HC1 (HC-T30K) Fab (Fab, V domains shown, Fab-Flag tag fusion from 293T cells) VH: EVQLVQSGAEVKKPGASVKVSCKASGYTFKDSEMHWVRQAPGQGLEWIGGVDPETDGAAYNQKFKGRATITRDTSTSTAYLELSSLRSEDTAVYYCTRGYDYDYALDYWGQGTLVTVSS VL: DIQMTQSPSSLSASVGDRVTITCRASSSVNFIHWYQQKPGKAPKPLISATSNLASGVPSRFSGSGSGTDFTLTISSLQPEDFATYYCQQWSSNPWTFGQGTKVEIK | 0.475 nM | 0.000165 s⁻¹ | 347000 M⁻¹ s⁻¹
2 | h15H6.v2 variant HC7 (HC-A58F) Fab (Fab, V domains shown, Fab-Flag tag fusion from 293T cells) VH: EVQLVQSGAEVKKPGASVKVSCKASGYTFTDSEMHWVRQAPGQGLEWIGGVDPETDGAFYNQKFKGRATITRDTSTSTAYLELSSLRSEDTAVYYCTRGYDYDYALDYWGQGTLVTVSS VL: DIQMTQSPSSLSASVGDRVTITCRASSSVNFIHWYQQKPGKAPKPLISATSNLASGVPSRFSGSGSGTDFTLTISSLQPEDFATYYCQQWSSNPWTFGQGTKVEIK | 0.611 nM | 0.000165 s⁻¹ | 271000 M⁻¹ s⁻¹
3 | h15H6.v2 variant HC5 (HC-M34L) Fab (Fab, V domains shown, Fab-Flag tag fusion from 293T cells) VH: EVQLVQSGAEVKKPGASVKVSCKASGYTFTDSELHWVRQAPGQGLEWIGGVDPETDGAAYNQKFKGRATITRDTSTSTAYLELSSLRSEDTAVYYCTRGYDYDYALDYWGQGTLVTVSS VL: DIQMTQSPSSLSASVGDRVTITCRASSSVNFIHWYQQKPGKAPKPLISATSNLASGVPSRFSGSGSGTDFTLTISSLQPEDFATYYCQQWSSNPWTFGQGTKVEIK | 0.481 nM | 0.000246 s⁻¹ | 511000 M⁻¹ s⁻¹
4 | h15H6.v2 variant LC2 (LC-N31H) Fab (Fab, V domains shown, Fab-Flag tag fusion from 293T cells) VH: EVQLVQSGAEVKKPGASVKVSCKASGYTFTDSEMHWVRQAPGQGLEWIGGVDPETDGAAYNQKFKGRATITRDTSTSTAYLELSSLRSEDTAVYYCTRGYDYDYALDYWGQGTLVTVSS VL: DIQMTQSPSSLSASVGDRVTITCRASSSVHFIHWYQQKPGKAPKPLISATSNLASGVPSRFSGSGSGTDFTLTISSLQPEDFATYYCQQWSSNPWTFGQGTKVEIK | 0.836 nM | 0.00019 s⁻¹ | 228000 M⁻¹ s⁻¹
5 | h15H6.v2 variant HC9 (HC-A100aP) Fab (Fab, V domains shown, Fab-Flag tag fusion from 293T cells) VH: EVQLVQSGAEVKKPGASVKVSCKASGYTFTDSEMHWVRQAPGQGLEWIGGVDPETDGAAYNQKFKGRATITRDTSTSTAYLELSSLRSEDTAVYYCTRGYDYDYPLDYWGQGTLVTVSS VL: DIQMTQSPSSLSASVGDRVTITCRASSSVNFIHWYQQKPGKAPKPLISATSNLASGVPSRFSGSGSGTDFTLTISSLQPEDFATYYCQQWSSNPWTFGQGTKVEIK | 0.618 nM | 0.00021 s⁻¹ | 340000 M⁻¹ s⁻¹
6 | h15H6.v2 variant LC5 (LC-N53E) Fab (Fab, V domains shown, Fab-Flag tag fusion from 293T cells) VH: EVQLVQSGAEVKKPGASVKVSCKASGYTFTDSEMHWVRQAPGQGLEWIGGVDPETDGAAYNQKFKGRATITRDTSTSTAYLELSSLRSEDTAVYYCTRGYDYDYALDYWGQGTLVTVSS VL: DIQMTQSPSSLSASVGDRVTITCRASSSVNFIHWYQQKPGKAPKPLISATSELASGVPSRFSGSGSGTDFTLTISSLQPEDFATYYCQQWSSNPWTFGQGTKVEIK | 0.481 nM | 0.000212 s⁻¹ | 441000 M⁻¹ s⁻¹
7 | h15H6.v2 variant HC2 (HC-T30R) Fab (Fab, V domains shown, Fab-Flag tag fusion from 293T cells) VH: EVQLVQSGAEVKKPGASVKVSCKASGYTFRDSEMHWVRQAPGQGLEWIGGVDPETDGAAYNQKFKGRATITRDTSTSTAYLELSSLRSEDTAVYYCTRGYDYDYALDYWGQGTLVTVSS VL: DIQMTQSPSSLSASVGDRVTITCRASSSVNFIHWYQQKPGKAPKPLISATSNLASGVPSRFSGSGSGTDFTLTISSLQPEDFATYYCQQWSSNPWTFGQGTKVEIK | 0.449 nM | 0.000164 s⁻¹ | 366000 M⁻¹ s⁻¹
8 | h15H6.v2 variant HC4 (HC-T28R) Fab (Fab, V domains shown, Fab-Flag tag fusion from 293T cells) VH: EVQLVQSGAEVKKPGASVKVSCKASGYRFTDSEMHWVRQAPGQGLEWIGGVDPETDGAAYNQKFKGRATITRDTSTSTAYLELSSLRSEDTAVYYCTRGYDYDYALDYWGQGTLVTVSS VL: DIQMTQSPSSLSASVGDRVTITCRASSSVNFIHWYQQKPGKAPKPLISATSNLASGVPSRFSGSGSGTDFTLTISSLQPEDFATYYCQQWSSNPWTFGQGTKVEIK | 0.643 nM | 0.000212 s⁻¹ | 331000 M⁻¹ s⁻¹
9 | h15H6.v2 variant LC6 (LC-Q89H) Fab (Fab, V domains shown, Fab-Flag tag fusion from 293T cells) VH: EVQLVQSGAEVKKPGASVKVSCKASGYTFTDSEMHWVRQAPGQGLEWIGGVDPETDGAAYNQKFKGRATITRDTSTSTAYLELSSLRSEDTAVYYCTRGYDYDYALDYWGQGTLVTVSS VL: DIQMTQSPSSLSASVGDRVTITCRASSSVNFIHWYQQKPGKAPKPLISATSNLASGVPSRFSGSGSGTDFTLTISSLQPEDFATYYCHQWSSNPWTFGQGTKVEIK | 0.642 nM | 0.000251 s⁻¹ | 390000 M⁻¹ s⁻¹
10 | h15H6.v2 variant HC8 (HC-Y100I) Fab (Fab, V domains shown, Fab-Flag tag fusion from 293T cells) VH: EVQLVQSGAEVKKPGASVKVSCKASGYTFTDSEMHWVRQAPGQGLEWIGGVDPETDGAAYNQKFKGRATITRDTSTSTAYLELSSLRSEDTAVYYCTRGYDYDIALDYWGQGTLVTVSS VL: DIQMTQSPSSLSASVGDRVTITCRASSSVNFIHWYQQKPGKAPKPLISATSNLASGVPSRFSGSGSGTDFTLTISSLQPEDFATYYCQQWSSNPWTFGQGTKVEIK | 0.603 nM | 0.000237 s⁻¹ | 393000 M⁻¹ s⁻¹
11 | h15H6.v2 variant LC1 (LC-S29R) Fab (Fab, V domains shown, Fab-Flag tag fusion from 293T cells) VH: EVQLVQSGAEVKKPGASVKVSCKASGYTFTDSEMHWVRQAPGQGLEWIGGVDPETDGAAYNQKFKGRATITRDTSTSTAYLELSSLRSEDTAVYYCTRGYDYDYALDYWGQGTLVTVSS VL: DIQMTQSPSSLSASVGDRVTITCRASSRVNFIHWYQQKPGKAPKPLISATSNLASGVPSRFSGSGSGTDFTLTISSLQPEDFATYYCQQWSSNPWTFGQGTKVEIK | 1.55 nM | 0.000229 s⁻¹ | 148000 M⁻¹ s⁻¹
12 | h15H6.v2 variant HC3 (HC-T28K) Fab (Fab, V domains shown, Fab-Flag tag fusion from 293T cells) VH: EVQLVQSGAEVKKPGASVKVSCKASGYKFTDSEMHWVRQAPGQGLEWIGGVDPETDGAAYNQKFKGRATITRDTSTSTAYLELSSLRSEDTAVYYCTRGYDYDYALDYWGQGTLVTVSS VL: DIQMTQSPSSLSASVGDRVTITCRASSSVNFIHWYQQKPGKAPKPLISATSNLASGVPSRFSGSGSGTDFTLTISSLQPEDFATYYCQQWSSNPWTFGQGTKVEIK | 0.374 nM | 0.000171 s⁻¹ | 456000 M⁻¹ s⁻¹
13 | h15H6.v2 variant HC6 (HC-E53A) Fab (Fab, V domains shown, Fab-Flag tag fusion from 293T cells) VH: EVQLVQSGAEVKKPGASVKVSCKASGYTFTDSEMHWVRQAPGQGLEWIGGVDPATDGAAYNQKFKGRATITRDTSTSTAYLELSSLRSEDTAVYYCTRGYDYDYALDYWGQGTLVTVSS VL: DIQMTQSPSSLSASVGDRVTITCRASSSVNFIHWYQQKPGKAPKPLISATSNLASGVPSRFSGSGSGTDFTLTISSLQPEDFATYYCQQWSSNPWTFGQGTKVEIK | 2.58 nM | 0.00026 s⁻¹ | 101000 M⁻¹ s⁻¹
14 | h15H6.v2 variant LC4 (LC-N53H) Fab (Fab, V domains shown, Fab-Flag tag fusion from 293T cells) VH: EVQLVQSGAEVKKPGASVKVSCKASGYTFTDSEMHWVRQAPGQGLEWIGGVDPETDGAAYNQKFKGRATITRDTSTSTAYLELSSLRSEDTAVYYCTRGYDYDYALDYWGQGTLVTVSS VL: DIQMTQSPSSLSASVGDRVTITCRASSSVNFIHWYQQKPGKAPKPLISATSHLASGVPSRFSGSGSGTDFTLTISSLQPEDFATYYCQQWSSNPWTFGQGTKVEIK | 0.517 nM | 0.000213 s⁻¹ | 413000 M⁻¹ s⁻¹
